The record followed here is patent US20220315631A1, “STAPLED BETA-CATENIN LIGANDS” (Ohio State Innovation Foundation, priority 2019, published 2022).

A word on the IC50: it is the concentration that inhibits the measured activity by half.

The labels stand for the following.
T1: β-catenin (Homo sapiens, UniProt P35222)
T1 construct: cells harboring plasmid pGEX-β-catenin(133-665)52 were grown in LB medium; made in house; host or cells: E. coli BL21 (DE3)
T1 sequence (P35222 133-665): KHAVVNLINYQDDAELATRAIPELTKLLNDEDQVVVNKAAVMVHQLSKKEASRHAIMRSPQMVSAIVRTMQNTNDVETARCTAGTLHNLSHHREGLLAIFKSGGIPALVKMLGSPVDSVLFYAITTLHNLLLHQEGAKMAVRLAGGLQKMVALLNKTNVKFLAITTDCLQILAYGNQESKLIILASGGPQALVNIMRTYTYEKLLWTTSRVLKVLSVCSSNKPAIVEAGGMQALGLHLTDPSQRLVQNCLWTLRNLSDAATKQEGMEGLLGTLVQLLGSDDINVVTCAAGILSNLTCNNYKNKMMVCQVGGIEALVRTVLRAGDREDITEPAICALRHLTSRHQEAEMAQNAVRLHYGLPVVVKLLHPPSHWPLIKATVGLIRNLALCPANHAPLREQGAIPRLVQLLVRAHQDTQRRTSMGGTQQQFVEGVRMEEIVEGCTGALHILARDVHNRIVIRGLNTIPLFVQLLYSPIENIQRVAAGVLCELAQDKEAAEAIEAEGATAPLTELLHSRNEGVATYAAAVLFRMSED

T2: GST-β-catenin (UniProt P35222 133-665)
T2 construct: range 133-665; GST fusion purified on glutathione-agarose and used in the FP assays; also called GST-β-catenin(133-665); pGEX-β-catenin(133-665); not shown: glutathione S-transferase (GST) tag encoded by the pGEX plasmid
T2 sequence (looked up): T1 sequence (P35222 133-665)

B1: Peptide 10 (peptide)
peptide: Ac-GGYPEDILDKHLQR[Tle]WL-NH2
modifications: lactam 6-10
notes: also called Ac-GGYPEDILDKHLQRZWL-NH2
B2: Peptide 6 (peptide)
peptide: Ac-GGYPEDILDKHLQRVIL-NH2
modifications: lactam (positions not given here); not fully specified
B3: Peptide 18 (peptide)
peptide: Ac-GGYPEDILDKHLQR[Tle][Bta]L[AEEA][AEEA][Dap][dF][2Nal]R[dR]R[dR]Q
modifications: lactam 6-10; bridge (positions not given here); not fully specified (bridges); numbers in words are those of the source; also: cCPP9 ring hung on Dap18 side chain via Gln25 side chain, no backbone bond Dap18-X19
notes: also called Ac-GGYPEDILDKHLQRZ(3-Bta)L-(miniPEG)2-Dap(CPP9)
B4: Peptide 12 (peptide)
peptide: Ac-GGYPEDILDKHLQR[Tle][1Nal]L-NH2
modifications: lactam 6-10
notes: also called Ac-GGYPEDILDKHLQRZ(1-Nal)L-NH2
B5: Peptide 19 (peptide)
peptide: Ac-YPEDILDKHLQSV[Bta]T[miniPEG][miniPEG][Dap]-NH2
modifications: lactam 4-8
B6: Peptide 21 (peptide)
peptide: Ac-YPEDILDKHLQQV[Bta]T[miniPEG][miniPEG][Dap]-NH2
modifications: lactam 4-8
B7: Peptide 20 (peptide)
peptide: Ac-YPEDILDKHLQEV[Bta]T[miniPEG][miniPEG][Dap]-NH2
modifications: lactam 4-8
B8: Peptide 8 (peptide)
peptide: Ac-GGYPEDILDKHLQCVILC[βAla]-NH2
modifications: lactam 6-10; linker 14-18 via m‑xylene
notes: Double stapled peptide
B9: Peptide 11 (peptide)
peptide: Ac-GGYPEDILDKHLQR[Tle][Bta]L-NH2
modifications: lactam 6-10
notes: also called Ac-GGYPEDILDKHLQRZ(3-Bta)L-NH2
B10: Peptide 7 (peptide)
peptide: Ac-GGYPECILDCKHLQDVILK[βAla]-NH2
modifications: lactam (positions not given here); linker 6-10 via m‑xylene; not fully specified; also: Asp-Lys staple, places not given here (residues shown as images)
notes: Double stapled peptide
B11: Peptide 23 (peptide)
peptide: Ac-YPEDILDKHLQSV[Bta][dS][miniPEG][miniPEG][Dap]-NH2
modifications: lactam 4-8
B12: Peptide 14 (peptide)
peptide: XXRXRXQGGYPEDILDKHLQRXXL
modifications: not fully specified; N-terminal CPP9-(miniPEG)2; Asp-Lys staple; Z = tert-leucine; 3-Bta = 3-benzothienyl-l-alanine; C-terminal amide
notes: also called CPP9-(miniPEG)2-GGYPEDILDKHLQRZ(3-Bta)L-NH2
B13: Peptide 37 (peptide)
peptide: YPEDILDKHLQRXIL
modifications: N-terminal acetyl; Asp-Lys staple; Hvl = β-hydroxyvaline; C-terminal amide
B14: Peptide 22 (peptide)
peptide: Ac-YPEDILDKHLQ[dE]V[Bta]T[miniPEG][miniPEG][Dap]-NH2
modifications: lactam 4-8
B15: Peptide 28 (peptide)
peptide: Ac-YPEDILDKHLQRV[Tle]L[miniPEG][miniPEG][Dap]-NH2
modifications: lactam 4-8
notes: also called Ac-YPEDILDKHLQRVZL-(miniPEG)2-Dap-NH2
B16: Peptide 15 (peptide)
peptide: XXRXRXQGGYPEDILDKHLQRXXL
modifications: not fully specified; N-terminal CPP9-(miniPEG)2; Asp-Lys staple; Z = tert-leucine; 2-Nal = 2-napthylalanine; C-terminal amide
notes: also called CPP9-(miniPEG)2-GGYPEDILDKHLQRZ(2-Nal)L-NH2
B17: Peptide 13 (peptide)
peptide: Ac-GGYPEDILDKHLQR[Tle][2Nal]L-NH2
modifications: lactam 6-10
notes: also called Ac-GGYPEDILDKHLQRZ(2-Nal)L-NH2
B18: Peptide 16 (peptide)
peptide: Ac-GG[Bta]PEDILDKHLQR[Tle][Bta]L-NH2
modifications: lactam 6-10
SMILES: CC[C@H](C)[C@@H]1NC(=O)[C@@H](NC(=O)[C@H](CCC(=O)O)NC(=O)[C@@H]2CCCN2C(=O)[C@H](Cc2csc3ccccc23)NC(=O)CNC(=O)CNC(C)=O)CC(=O)NCCCC[C@@H](C(=O)N[C@@H](Cc2c[nH]cn2)C(=O)N[C@@H](CC(C)C)C(=O)N[C@@H](CCC(N)=O)C(=O)N[C@@H](CCCNC(=N)N)C(=O)N[C@H](C(=O)N[C@@H](Cc2csc3ccccc23)C(=O)N[C@@H](CC(C)C)C(N)=O)C(C)(C)C)NC(=O)[C@H](CC(=O)O)NC(=O)[C@H](CC(C)C)NC1=O
notes: also called Ac-GG(3-Bta)PEDILDKHLQRZ(3-Bta)L-NH2

Positions of bridges follow the written chain, without caps; N, C: chain ends. Non-standard residues stand in square brackets, D forms with d. Residues, ends and D or L forms follow the SMILES beside them. No end group written: not given here. m‑xylene = 1,3-bis[(methylthio)methyl]benzene scaffold from m-xylene dibromide; miniPEG = polyethylene glycol moiety (linker unit); 1Nal = N[C@@H](Cc1cccc2ccccc12)C(=O)O; 2Nal = N[C@@H](Cc1ccc2ccccc2c1)C(=O)O; Bta = N[C@@H](Cc1csc2ccccc12)C(=O)O; Tle = CC(C)(C)[C@H](N)C(=O)O; Dap = NC[C@H](N)C(=O)O; AEEA = NCCOCCOCC(=O)O; βAla = NCCC(=O)O

For one assay, the target named is T1, β-catenin. In words: FP-based competition assay for binding to β-catenin. As to conditions: IC50; competition with FAM-labeled peptide 1 (10 nM), 50 nM GST-β-catenin; read-out: KD or IC50. The protocol:
Samples were transferred into black-on-black 384-well non-binding microplates (Greiner) and FP was measured using a Tecan M1000 Infinite plate reader. The data were analyzed using GraphPad Prism v. 8.0 and normalized to FP values corresponding to fully bound/unbound probe. All binding values reported are the mean±SD of independent experiments.
Protein Purification. […] Cells were harvested by centrifugation and lysed in lysis buffer (20 mM Tris, pH 8.0, 150 mM NaCl, 2 mM DTT, 1% Triton-X100, 200 mM EDTA, 10 mg/mL PMSF, and 0.2 mg/mL lysozyme) on ice for 20 min, followed by sonication (8 s off, 2 s on, 1 min total, performed twice at 70% amplitude). The homogenate was centrifuged (13,000 g for 30 min at 4° C. and the clear supernatant was loaded onto an equilibrated glutathione-agarose column. After exhaustive washing with wash buffer (20 mM Tris, pH 7.4, 150 mM NaCl, 2 mM DTT), the bound GST-β-catenin was eluted with wash buffer supplemented with 10 mM glutathione, concentrated, and stored at −80° C. in 30% glycerol.
As for `CC[C@H](C)[C@@H]1NC(=O)[C@@H](NC(=O)[C@H](CCC(=O)O)NC(=O)[C@@H]2CCCN2C(=O)[C@H](Cc2ccc(O)cc2)NC(C)=O)CC(=O)NCCCC[C@@H](C(=O)N[C@@H](Cc2c[nH]cn2)C(=O)N[C@@H](CC(C)C)C(=O)N[C@@H](CCC(N)=O)C(=O)N[C@@H](CCCNC(=N)N)C(=O)N[C@H](C(=O)N[C@@H](Cc2csc3ccccc23)C(=O)N[C@@H](CCCNC(=N)N)C(=O)NCCOCCOCC(=O)NCCOCCOCC(=O)N[C@@H](CN)C(N)=O)C(C)(C)C)NC(=O)[C@H](CC(=O)O)NC(=O)[C@H](CC(C)C)NC1=O` [Peptide 26, Ac-YPEDILDKHLQRZ(3-Bta)R-(miniPEG)2-Dap-NH2] (Ac-YPEDILDKHLQR[Tle][Bta]R[AEEA][AEEA][Dap]-NH2; lactam 4-8), the IC50 stood at 37 nM.
With `CC[C@H](C)[C@@H]1NC(=O)[C@@H](NC(=O)[C@H](CCC(=O)O)NC(=O)[C@@H]2CCCN2C(=O)[C@H](Cc2ccc(O)cc2)NC(C)=O)CC(=O)NCCCC[C@@H](C(=O)N[C@@H](Cc2c[nH]cn2)C(=O)N[C@@H](CC(C)C)C(=O)N[C@@H](CCC(N)=O)C(=O)N[C@@H](CCCNC(=N)N)C(=O)N[C@H](C(=O)N[C@@H](Cc2csc3ccccc23)C(=O)N[C@H](CCCNC(=N)N)C(=O)NCCOCCOCC(=O)NCCOCCOCC(=O)N[C@@H](CN)C(N)=O)C(C)(C)C)NC(=O)[C@H](CC(=O)O)NC(=O)[C@H](CC(C)C)NC1=O` [Peptide 27, Ac-YPEDILDKHLQRZ(3-Bta)(dR)-(miniPEG)2-Dap-NH2] (Ac-YPEDILDKHLQR[Tle][Bta][dR][AEEA][AEEA][Dap]-NH2; lactam 4-8), the half-maximal inhibitory concentration (IC50) was 41 nM.

In a further assay the target is T2, GST-β-catenin. Briefly: Table 7, binding to β-catenin; FP competition as for peptides 2-5 presumed.
Conditions: not given
With B1, the IC50 worked out at 71 nM.
As for B2, the half-maximal inhibitory concentration (IC50) came to 245 nM.
Take B3: the IC50 came to 104 nM.
For B4, the IC50 stood at 175 nM.
The molecule B5 returned an IC50 of 382 nM.
As to B6, the IC50 stood at 328 nM.
Take B7: the IC50 came out at 1800 nM.
The molecule B8 gave an IC50 of 525000 nM.
B9 showed an IC50 of 65 nM.
Consider B10, for which the IC50 turned out to be 3200 nM.
Molecule B11 gave an IC50 of 565 nM.
The same measure, in the same setting: under B12 stands 63.5 nM; under B13, 154 nM.
Molecule B14 yielded a half-inhibitory concentration (IC50) of 3500 nM.
The molecule B15 gave an IC50 of 306 nM.
Still for that read-out and setting: under B16 stands 79.4 nM; under B17, 86 nM.
B18: the half-maximal inhibitory concentration (IC50) is 97.9 nM.
